From patent US20220175977A1 (SORICIMED BIOPHARMA, published 2022)
Where no end group is shown, it is not given here.

Columns and labels:
[1] = target: T1, TRPV6 (endogenous, in human cancer cell lines, tumour tissue and plasma) (human, UniProt Q9H1D0 1-765); experiment: LNCaP model; method not described
T1 construct: whole, on cells; also called Transient Receptor Potential Vanilloid 6; TRPV6 channel
T1 sequence (looked up): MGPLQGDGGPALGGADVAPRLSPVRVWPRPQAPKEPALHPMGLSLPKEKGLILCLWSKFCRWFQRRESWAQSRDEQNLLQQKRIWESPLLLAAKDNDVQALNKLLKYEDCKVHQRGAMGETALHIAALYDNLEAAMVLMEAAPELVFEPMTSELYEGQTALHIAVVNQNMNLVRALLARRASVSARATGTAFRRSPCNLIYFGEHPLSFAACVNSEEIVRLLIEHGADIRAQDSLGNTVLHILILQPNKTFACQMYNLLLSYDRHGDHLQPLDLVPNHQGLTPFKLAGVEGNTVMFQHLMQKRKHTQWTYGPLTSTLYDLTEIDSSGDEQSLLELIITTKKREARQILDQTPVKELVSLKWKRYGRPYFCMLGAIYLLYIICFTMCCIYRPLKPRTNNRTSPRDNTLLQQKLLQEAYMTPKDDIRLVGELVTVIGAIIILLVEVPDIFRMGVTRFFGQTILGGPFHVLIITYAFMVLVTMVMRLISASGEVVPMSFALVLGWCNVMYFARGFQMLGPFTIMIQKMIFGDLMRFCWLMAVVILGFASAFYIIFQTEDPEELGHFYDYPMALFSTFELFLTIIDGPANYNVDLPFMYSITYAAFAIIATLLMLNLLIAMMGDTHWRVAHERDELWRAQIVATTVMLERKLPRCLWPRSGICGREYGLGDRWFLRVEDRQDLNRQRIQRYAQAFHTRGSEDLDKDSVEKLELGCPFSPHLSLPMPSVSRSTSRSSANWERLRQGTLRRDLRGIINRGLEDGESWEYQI

[2] = target: T1, TRPV6 (endogenous, in human cancer cell …); experiment: fluorescence microscopy, SKOV-3 cells, not transfected (FIG. 9 A1-A3)

KEFLHPSKVDLPR [SorC13]
Kd [1]: 100 nM

EGKLSSNDTEGGLCKEFLHPSKVDLPR [SorC27]
Kd [1]: 140 nM

B1: SorC27-cy5.5 (peptide)
peptide: EGKLSSNDTEGGLC(Cy5.5)KEFLHPSKVDLPR
notes: also called SorC27-Cy5.5 compound; fluorescently labeled SorC27
binding result [2]: binds
